Assay results from the supplement of paper PMC7877785.
± gives the uncertainty stated by the source.

Test: self-splicing fitness, log relative to wild type (ln ratio); higher = more splicing; Tetrahymena group I intron in knt gene, E. coli kanamycin selection, DiMSum; sequences stand for … in CUCUCU…GGAGGGAAAAGUUAUCAGGCAUGCACCUGGUAGCUAGUCUUUAAACCAAUAGAUUGCAUCGGUUUAAAAGGCAAGACCGUCAAAUUGCGGGAAAGGGGUCAACAGCCGUUCAGUACCAAGUCUCAGGGGAAACUUUGAGAUGGCCUUGCAAAGGGUAUGGUAAUAAGCUGACGGACAUGGUCCUAACCACGCAGCCAAGUCCUAAGUCAACAGAUCUUCUGUUGAUAUGGAUGCAGUUCACAGACUAAAUGUCGGUCGGGGAAGAUGUAUUCUUCUCAUAAGAUAUAGUCGGACCUCUCCUUAAUGGGAGCUAGCGGAUGAAGUGAUGCAACACUGGAGCCGCUGGGAACUAAUUUGUAUGCGAAAGUAUAUUGAUUAGUUUUGGAGUACUCGUGGUCG
Procedure, shortened: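 Pooled colonies went to amplicon sequencing on an Illumina HiSeq 2500 after six replicate transformations. The plates were LB agar with 100 μg/mL carbenicillin, 50 μM IPTG and 0.2% rhamnose, with or without 25 μg/mL kanamycin, incubated overnight at 37°C or 30°C. The E. coli BL21(DE3) library had all eight P1ex-region intron nucleotides randomised, the intron placed in the knt kanamycin-resistance gene on pET-22b(+). DiMSum fitness is the error-weighted combination of replicate fold changes, kanamycin against none, normalised to wild type.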

Sequence	self-splicing fitness (ln) (30 °C)	self-splicing fitness (ln) (37 °C)
UUUUAGCAAUAUUACGUAGA	-2.06 ± 0.22	-0.71 ± 0.24
CGCCAGCAAUAUUACGGGCG		-2.94 ± 0.4
GUAGAGCAAUAUUACGCUGU	-1.88 ± 0.2	-0.607 ± 0.22
GUUGAGCAAUAUUACGUGCC	-3.02 ± 0.45	
AAGCAGCAAUAUUACGCAAC	-2.62 ± 0.12	-1.49 ± 0.13
AAGGAGCAAUAUUACGCCGC		-2.04 ± 0.5
GUUUAGCAAUAUUACGCCUC	0.228 ± 0.22	-0.7 ± 0.23
CGAGAGCAAUAUUACGCUGA	-2.91 ± 0.44	-0.634 ± 0.27
CGGUAGCAAUAUUACGCUGG	-0.433 ± 0.13	-0.681 ± 0.15
GUUAAGCAAUAUUACGGACA	-0.907 ± 0.21	-1.18 ± 0.21
UCCUAGCAAUAUUACGGUGU	-1.71 ± 0.067	-0.222 ± 0.097
GUAAAGCAAUAUUACGCGCA	0.459 ± 0.16	-0.0064 ± 0.17
CUGUAGCAAUAUUACGGGAA	-1.49 ± 0.29	-2.12 ± 0.35
UUUGAGCAAUAUUACGGGAA	-2.02 ± 0.39	-2.22 ± 0.32
UUUGAGCAAUAUUACGUACG	-1.49 ± 0.32	-0.599 ± 0.35
CGUAAGCAAUAUUACGUGUU	-2.37 ± 0.1	-3.63 ± 0.2
CGGGAGCAAUAUUACGCUUU		-0.957 ± 0.27
GAGCAGCAAUAUUACGAGGC	-2.67 ± 0.47	
CGCCAGCAAUAUUACGAUCA	-1.58 ± 0.32	-0.817 ± 0.34
GCAAAGCAAUAUUACGUUUG	-4.2 ± 0.17	-3.24 ± 0.15
AAUAAGCAAUAUUACGAAGA	-1.52 ± 0.26	-1.92 ± 0.32

Sequence	self-splicing fitness (ln) (30 °C)	self-splicing fitness (ln) (37 °C)
UGAGAGCAAUAUUACGCUAU	-3.09 ± 0.35	-1.48 ± 0.46
UUCAAGCAAUAUUACGCCAG	0.732 ± 0.48	0.119 ± 0.33
AAAGAGCAAUAUUACGGCUG	-2.36 ± 0.1	-1.12 ± 0.12
UCUAAGCAAUAUUACGGGUC	-2.67 ± 0.26	-1.16 ± 0.37
CUAUAGCAAUAUUACGAAUA	-2.99 ± 0.34	-1.47 ± 0.22
AUUAAGCAAUAUUACGAGAA		-1.08 ± 0.38
CUCUAGCAAUAUUACGUUGC	-3.71 ± 0.3	-3.08 ± 0.35
GCAGAGCAAUAUUACGCGAU	-2.94 ± 0.36	
AGACAGCAAUAUUACGCGGA	-2.87 ± 0.14	-1.58 ± 0.12
CGAAAGCAAUAUUACGUCAG	-1.1 ± 0.08	0.335 ± 0.11
ACAUAGCAAUAUUACGGAAU	-3.72 ± 0.19	-2.44 ± 0.19
GAUGAGCAAUAUUACGGCGU	-0.735 ± 0.11	-0.736 ± 0.13
GCGGAGCAAUAUUACGUAAU	-1.52 ± 0.15	-1.73 ± 0.24
GAGAAGCAAUAUUACGGGUG	-1.72 ± 0.15	-1.88 ± 0.14
UCUUAGCAAUAUUACGGACG	-2.42 ± 0.3	
CGGUAGCAAUAUUACGUAUU	-2 ± 0.32	-2.16 ± 0.27
UUGUAGCAAUAUUACGUCGC	-3.54 ± 0.46	
GAAUAGCAAUAUUACGGCGG	-2.65 ± 0.18	-0.799 ± 0.13
CUAAAGCAAUAUUACGGUAA	-3.53 ± 0.15	-2.36 ± 0.18
AUACAGCAAUAUUACGGCCA	-0.834 ± 0.11	-0.783 ± 0.1
